Five molecules from patent US20150344570A1 (published 2015) can be followed below.

In assay [1] the target is T1, FcγRIIIa (human, UniProt P08637 17-208).
T1 construct: extracellular domain; also called FcgRIIIa; CD16A; not shown: His tag attached to the C terminus
The assay can be described thus: ratio of SPR KDs: KD of GpH7-TA22/GpH7-B78/GpL16-k0 divided by KD of this antibody. An excerpt:
Then, GpH7-TA54 (SEQ ID NO: 46) resulting from the introduction of Y296W into GpH7-TA22 was constructed, and expressed and prepared in combination with GpH7-B78 according to the method described in Reference Example 1. Furthermore, GpH7-TA58 (SEQ ID NO: 45) resulting from the introduction of Y296W into GpH7-B78 was constructed, and expressed and prepared in combination with GpH7-TA22 according to the method described in Reference Example 1. To assess the effect of combination with Y296W, the prepared antibodies were compared for the FcγRIIIa-binding activity according to the method described in Reference Example 2 (Table 17).
(§1) Analysis of interaction between objective antibody and the FcγR was carried out using Biacore T100 (GE Healthcare). HBS-EP+ (GE Healthcare) was used as the running buffer, and the measurement temperature was set to 25° C. Chips produced by immobilizing the antigen peptide by the amine coupling method to a Series S Sencor Chip CM5 (GE Healthcare), or alternatively, chips produced by allowing preliminarily biotinylated antigen peptides to interact with and immobilize onto a Series S Sensor Chip SA (certified) (GE Healthcare) were used. Antibodies of interest were captured onto an antigen peptide-immobilized chip, and allowed to interact to each FcγR diluted with running buffer. To regenerate and repeatedly use the chip, the antibodies captured on the chip were washed off by reacting 10 mM glycine-HCl, pH 1.5.
T1 sequence (P08637 17-208): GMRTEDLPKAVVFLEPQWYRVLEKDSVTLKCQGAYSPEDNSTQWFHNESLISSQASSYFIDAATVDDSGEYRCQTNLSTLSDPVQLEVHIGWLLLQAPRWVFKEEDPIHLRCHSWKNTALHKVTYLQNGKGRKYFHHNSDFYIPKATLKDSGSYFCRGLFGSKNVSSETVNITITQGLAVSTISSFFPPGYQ

Assay [2] has as its target T1, FcγRIIIa. Kind of assay: ratio of SPR KDs: KD of GpH7-TA7/GpH7-B78/GpL16-k0 divided by KD of this antibody. The procedure:
as §1
Specifically, to calculate association rate constant ka (L/mol/s) and dissociation rate constant kd (1/s), sensorgrams obtained by measurement were processed for global fitting by Biacore Evaluation Software using 1:1 Langmuir binding model and dissociation constant KD (mol/1) was calculated from the resulting values.

For the next assay, the target named is FcγRIa (human, UniProt P12314 16-292). Kind of assay: SPR (Biacore), relative binding. A general note: In SPR one partner is held on a chip, and binding of the other changes the refractive index at the surface.
The target in assay [3] is T2, FcγRIIIa (human, UniProt P08637 17-208).
T2 construct: extracellular domain; Soluble extracellular domain with a C-terminal His tag, expressed in FreeStyle293 cells and used as the analyte in Biacore; also called FcgRIIIa; CD16A; not shown: His tag attached to the C terminus
Kind of assay: SPR (Biacore); KD of GpH7-TA7/GpH7-B78/GpL16-k0 for FcγRIIIa divided by the KD of this antibody. The procedure:
Then, K334G was also assessed in the same manner. GpH7-TA40 (SEQ ID NO: 47) resulting from the introduction of K334G into GpH7-TA7 was constructed, and expressed and prepared in combination with GpH7-B78 according to the method described in Reference Example 1. Furthermore, GpH7-TA50 (SEQ ID NO: 48) resulting from the introduction of K334G into GpH7-B78 was constructed, and expressed and prepared in combination with GpH7-TA7 according to the method described in Reference Example 1. To assess the effect of combinations with K334G, the prepared antibodies were compared for the FcγRIIIa binding according to the method described in Reference Example 2 (Table 18).
as §1, with “To regenerate and repeatedly use the chip, the antibodies captured on the chip were washed off by reacting 10 mM glycine-HCl, pH 1.5.” left out
T2 sequence (P08637 17-208): as above

Sequence of FcγRIa (P12314 16-292): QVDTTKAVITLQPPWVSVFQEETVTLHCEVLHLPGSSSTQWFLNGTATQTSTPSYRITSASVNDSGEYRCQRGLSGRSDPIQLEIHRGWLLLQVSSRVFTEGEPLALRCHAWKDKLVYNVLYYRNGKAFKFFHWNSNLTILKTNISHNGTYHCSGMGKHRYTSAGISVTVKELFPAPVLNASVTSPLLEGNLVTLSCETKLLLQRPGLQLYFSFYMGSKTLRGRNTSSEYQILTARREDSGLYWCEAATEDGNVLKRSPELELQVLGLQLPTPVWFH

B1: GpH7-TA22/GpH7-B78/GpL16-k0 (antibody, human IgG1, kappa)
heavy 1: QVQLVQSGAEVKKPGASVTVSCKASGYTFTDYEMHWIRQPPGEGLEWIGAIDPKTGDTAYSESFQDRVTLTADKSTSTAYMELSSLTSEDTAVYYCTRFYSYTYWGQGTLVTVSSASTKGPSVFPLAPSSKSTSGGTAALGCLVKDYFPEPVTVSWNSGALTSGVHTFPAVLQSSGLYSLSSVVTVPSSSLGTQTYICNVNHKPSNTKVDKKVEPKSCDKTHTCPPCPAPEYLWGPDVFLFPPKPKDTLMISRTPEVTCVVVDVSHEDPEVKFNWYVDGVEVHNAKTKPREEQYNATYRVVSVLTVLHQDWLNGKEYKCKVSNKALPAPIEKTISKAKGQPREPQVYTLPPSRKELTKNQVSLTCLVKGFYPSDIAVEWESNGQPENNYKTTPPVLDSDGSFFLYSKLTVDKSRWQQGNVFSCSVMHEALHNRYTQKSLSLSP
heavy 2: QVQLVQSGAEVKKPGASVTVSCKASGYTFTDYEMHWIRQPPGEGLEWIGAIDPKTGDTAYSESFQDRVTLTADKSTSTAYMELSSLTSEDTAVYYCTRFYSYTYWGQGTLVTVSSASTKGPSVFPLAPSSKSTSGGTAALGCLVKDYFPEPVTVSWNSGALTSGVHTFPAVLQSSGLYSLSSVVTVPSSSLGTQTYICNVNHKPSNTKVDKKVEPKSCDKTHTCPPCPAPELLGGPDVFLFPPKPKDTLMISRTPEVTCVVVDVSHEDPEVKFNWYVDGVEVHNAKTKPREEQYNSTYRVVSVLTVLHQDWLNGKEYKCKVSNKALPLPEEKTISKAKGQPREPQVYTLPPSRDELTKNQVSLTCLVKGFYPSDIAVEWESNGQPENNYKTTPPVLDSDGSFFLYSKLTVDKSRWQQGNVFSCSVMHEALHNHYTQESLSLSP
light: DIVMTQSPLSLPVTPGEPASISCQASESLVHSNRNTYLHWYLQKPGQSPQLLIYKVSNRFSGVPDRFSGSGSGTDFTLKISRVEAEDVGVYYCSQNTHVPPTFGQGTKVEIERTVAAPSVFIFPPSDEQLKSGTASVVCLLNNFYPREAKVQWKVDNALQSGNSQESVTEQDSKDSTYSLSSTLTLSKADYEKHKVYACEVTHQGLSSPVTKSFNRGEC
notes: Anti-glypican-3 IgG1 heterodimer; L234Y/G236W/S239D/S298A in H1, S239D/A330L/I332E in H2
Regarding B1, the KD ratio with FcγRIIIa [1] was found to be 1 fold; with FcγRIIIa [2], 3.2 fold.

B2: GpH7-B14/GpL16-k0 (antibody, human IgG1, kappa)
heavy: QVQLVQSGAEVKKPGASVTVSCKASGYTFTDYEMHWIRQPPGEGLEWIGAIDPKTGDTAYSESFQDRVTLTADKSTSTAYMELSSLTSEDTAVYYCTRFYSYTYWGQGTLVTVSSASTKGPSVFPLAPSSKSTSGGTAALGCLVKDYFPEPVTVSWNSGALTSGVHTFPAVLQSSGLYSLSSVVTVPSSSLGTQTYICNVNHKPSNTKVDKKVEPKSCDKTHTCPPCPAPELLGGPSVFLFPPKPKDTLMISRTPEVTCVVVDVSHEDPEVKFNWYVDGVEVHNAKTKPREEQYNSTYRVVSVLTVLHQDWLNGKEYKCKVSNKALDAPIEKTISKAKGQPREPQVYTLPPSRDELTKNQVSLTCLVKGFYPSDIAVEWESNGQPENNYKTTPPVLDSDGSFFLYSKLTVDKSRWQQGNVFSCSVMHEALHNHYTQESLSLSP
light: DIVMTQSPLSLPVTPGEPASISCQASESLVHSNRNTYLHWYLQKPGQSPQLLIYKVSNRFSGVPDRFSGSGSGTDFTLKISRVEAEDVGVYYCSQNTHVPPTFGQGTKVEIERTVAAPSVFIFPPSDEQLKSGTASVVCLLNNFYPREAKVQWKVDNALQSGNSQESVTEQDSKDSTYSLSSTLTLSKADYEKHKVYACEVTHQGLSSPVTKSFNRGEC
notes: P329D in both H chains
For B2, the “FcγRIa-binding activity relative to GpH7-A5/GpH7-B3/GpL16-k0” value with FcγRIa is not above 0.2 fold.

B3: GpH7-B15/GpL16-k0 (antibody, human IgG1, kappa)
heavy: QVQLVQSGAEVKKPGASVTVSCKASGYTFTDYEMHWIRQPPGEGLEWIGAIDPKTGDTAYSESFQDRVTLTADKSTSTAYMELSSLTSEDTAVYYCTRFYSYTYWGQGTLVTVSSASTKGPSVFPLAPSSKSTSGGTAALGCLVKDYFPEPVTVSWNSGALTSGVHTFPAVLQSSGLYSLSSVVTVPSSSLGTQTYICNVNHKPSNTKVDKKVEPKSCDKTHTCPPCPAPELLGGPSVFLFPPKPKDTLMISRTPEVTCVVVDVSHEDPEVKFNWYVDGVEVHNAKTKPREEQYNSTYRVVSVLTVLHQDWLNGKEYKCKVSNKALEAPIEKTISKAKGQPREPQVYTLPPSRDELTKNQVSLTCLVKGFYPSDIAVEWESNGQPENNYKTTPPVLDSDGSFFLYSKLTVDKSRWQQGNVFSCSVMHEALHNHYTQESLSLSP
light: DIVMTQSPLSLPVTPGEPASISCQASESLVHSNRNTYLHWYLQKPGQSPQLLIYKVSNRFSGVPDRFSGSGSGTDFTLKISRVEAEDVGVYYCSQNTHVPPTFGQGTKVEIERTVAAPSVFIFPPSDEQLKSGTASVVCLLNNFYPREAKVQWKVDNALQSGNSQESVTEQDSKDSTYSLSSTLTLSKADYEKHKVYACEVTHQGLSSPVTKSFNRGEC
notes: P329E in both H chains
Take B3: in the assay with FcγRIa, the “FcγRIa-binding activity relative to GpH7-A5/GpH7-B3/GpL16-k0” value is not above 0.2 fold.

B4: GpH7-TA7/GpH7-TA50/GpL16-k0 (antibody, human IgG1, kappa)
heavy 1: QVQLVQSGAEVKKPGASVTVSCKASGYTFTDYEMHWIRQPPGEGLEWIGAIDPKTGDTAYSESFQDRVTLTADKSTSTAYMELSSLTSEDTAVYYCTRFYSYTYWGQGTLVTVSSASTKGPSVFPLAPSSKSTSGGTAALGCLVKDYFPEPVTVSWNSGALTSGVHTFPAVLQSSGLYSLSSVVTVPSSSLGTQTYICNVNHKPSNTKVDKKVEPKSCDKTHTCPPCPAPEYLWGPSVFLFPPKPKDTLMISRTPEVTCVVVDVSHEDPEVKFNWYVDGVEVHNAKTKPREEQYNATYRVVSVLTVLHQDWLNGKEYKCKVSNKALPAPIEKTISKAKGQPREPQVYTLPPSRKELTKNQVSLTCLVKGFYPSDIAVEWESNGQPENNYKTTPPVLDSDGSFFLYSKLTVDKSRWQQGNVFSCSVMHEALHNRYTQKSLSLSP
heavy 2: QVQLVQSGAEVKKPGASVTVSCKASGYTFTDYEMHWIRQPPGEGLEWIGAIDPKTGDTAYSESFQDRVTLTADKSTSTAYMELSSLTSEDTAVYYCTRFYSYTYWGQGTLVTVSSASTKGPSVFPLAPSSKSTSGGTAALGCLVKDYFPEPVTVSWNSGALTSGVHTFPAVLQSSGLYSLSSVVTVPSSSLGTQTYICNVNHKPSNTKVDKKVEPKSCDKTHTCPPCPAPELLGGPDVFLFPPKPKDTLMISRTPEVTCVVVDVSHEDPEVKFNWYVDGVEVHNAKTKPREEQYNSTYRVVSVLTVLHQDWLNGKEYKCKVSNKALPLPEEGTISKAKGQPREPQVYTLPPSRDELTKNQVSLTCLVKGFYPSDIAVEWESNGQPENNYKTTPPVLDSDGSFFLYSKLTVDKSRWQQGNVFSCSVMHEALHNHYTQESLSLSP
light: DIVMTQSPLSLPVTPGEPASISCQASESLVHSNRNTYLHWYLQKPGQSPQLLIYKVSNRFSGVPDRFSGSGSGTDFTLKISRVEAEDVGVYYCSQNTHVPPTFGQGTKVEIERTVAAPSVFIFPPSDEQLKSGTASVVCLLNNFYPREAKVQWKVDNALQSGNSQESVTEQDSKDSTYSLSSTLTLSKADYEKHKVYACEVTHQGLSSPVTKSFNRGEC
notes: Heterodimerized anti-glypican-3 IgG1 antibody; K334G is in the H chain other than the one with L234Y/G236W/S298A; also called TA7/TA50
B4: the KD ratio in the assay with FcγRIIIa [3] was found to be 1.2.

B5: GpH7-TA40/GpH7-B78/GpL16-k0 (antibody, human IgG1, kappa)
heavy 1: QVQLVQSGAEVKKPGASVTVSCKASGYTFTDYEMHWIRQPPGEGLEWIGAIDPKTGDTAYSESFQDRVTLTADKSTSTAYMELSSLTSEDTAVYYCTRFYSYTYWGQGTLVTVSSASTKGPSVFPLAPSSKSTSGGTAALGCLVKDYFPEPVTVSWNSGALTSGVHTFPAVLQSSGLYSLSSVVTVPSSSLGTQTYICNVNHKPSNTKVDKKVEPKSCDKTHTCPPCPAPEYLWGPSVFLFPPKPKDTLMISRTPEVTCVVVDVSHEDPEVKFNWYVDGVEVHNAKTKPREEQYNATYRVVSVLTVLHQDWLNGKEYKCKVSNKALPAPIEGTISKAKGQPREPQVYTLPPSRKELTKNQVSLTCLVKGFYPSDIAVEWESNGQPENNYKTTPPVLDSDGSFFLYSKLTVDKSRWQQGNVFSCSVMHEALHNRYTQKSLSLSP
heavy 2: QVQLVQSGAEVKKPGASVTVSCKASGYTFTDYEMHWIRQPPGEGLEWIGAIDPKTGDTAYSESFQDRVTLTADKSTSTAYMELSSLTSEDTAVYYCTRFYSYTYWGQGTLVTVSSASTKGPSVFPLAPSSKSTSGGTAALGCLVKDYFPEPVTVSWNSGALTSGVHTFPAVLQSSGLYSLSSVVTVPSSSLGTQTYICNVNHKPSNTKVDKKVEPKSCDKTHTCPPCPAPELLGGPDVFLFPPKPKDTLMISRTPEVTCVVVDVSHEDPEVKFNWYVDGVEVHNAKTKPREEQYNSTYRVVSVLTVLHQDWLNGKEYKCKVSNKALPLPEEKTISKAKGQPREPQVYTLPPSRDELTKNQVSLTCLVKGFYPSDIAVEWESNGQPENNYKTTPPVLDSDGSFFLYSKLTVDKSRWQQGNVFSCSVMHEALHNHYTQESLSLSP
light: DIVMTQSPLSLPVTPGEPASISCQASESLVHSNRNTYLHWYLQKPGQSPQLLIYKVSNRFSGVPDRFSGSGSGTDFTLKISRVEAEDVGVYYCSQNTHVPPTFGQGTKVEIERTVAAPSVFIFPPSDEQLKSGTASVVCLLNNFYPREAKVQWKVDNALQSGNSQESVTEQDSKDSTYSLSSTLTLSKADYEKHKVYACEVTHQGLSSPVTKSFNRGEC
notes: Heterodimerized anti-glypican-3 IgG1 antibody; K334G is in the same H chain as L234Y/G236W/S298A; also called TA40/B78
Regarding B5, the KD ratio with FcγRIIIa [3] amounted to 0.5.
